Molecular target: OMCP
Assay: method not stated

B1: human NKG2D (Example 21) (receptor)
chain: NSLFNQEVQIPLTESYCGPCPKNWICYKNNCYQFFDESKNWYESQASCMSQNASLLKVYSKEDQDLLKLVKSYHWMGLVHIPTNGSWQWEDGSILSPNLLTIIEMQKGDCALYASSFKGYIENCSTPNTYICMQRTV
Q: For B1, which Kd is on record?
A: 0.1 nM

— patent US20210284706A1 (published 2021)
